The values that follow come from US20230250154A1 (CYTONICS, published 2023).

First the molecules themselves.
T1: ADAMTS5 (human, UniProt Q9UNA0 262-622, limits assumed)
T1 sequence (looked up): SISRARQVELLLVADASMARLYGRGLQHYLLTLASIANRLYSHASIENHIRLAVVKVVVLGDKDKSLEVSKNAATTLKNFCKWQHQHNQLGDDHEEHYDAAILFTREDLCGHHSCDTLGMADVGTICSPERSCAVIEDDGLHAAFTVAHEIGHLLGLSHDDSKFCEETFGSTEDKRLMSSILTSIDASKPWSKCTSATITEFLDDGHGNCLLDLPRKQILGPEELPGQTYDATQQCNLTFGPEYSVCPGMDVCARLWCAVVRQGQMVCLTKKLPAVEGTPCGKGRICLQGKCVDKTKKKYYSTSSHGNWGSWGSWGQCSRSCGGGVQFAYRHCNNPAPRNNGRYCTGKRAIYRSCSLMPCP

T2: ADAMTS4 (human, UniProt O75173 213-685, limits assumed)
T2 sequence (looked up): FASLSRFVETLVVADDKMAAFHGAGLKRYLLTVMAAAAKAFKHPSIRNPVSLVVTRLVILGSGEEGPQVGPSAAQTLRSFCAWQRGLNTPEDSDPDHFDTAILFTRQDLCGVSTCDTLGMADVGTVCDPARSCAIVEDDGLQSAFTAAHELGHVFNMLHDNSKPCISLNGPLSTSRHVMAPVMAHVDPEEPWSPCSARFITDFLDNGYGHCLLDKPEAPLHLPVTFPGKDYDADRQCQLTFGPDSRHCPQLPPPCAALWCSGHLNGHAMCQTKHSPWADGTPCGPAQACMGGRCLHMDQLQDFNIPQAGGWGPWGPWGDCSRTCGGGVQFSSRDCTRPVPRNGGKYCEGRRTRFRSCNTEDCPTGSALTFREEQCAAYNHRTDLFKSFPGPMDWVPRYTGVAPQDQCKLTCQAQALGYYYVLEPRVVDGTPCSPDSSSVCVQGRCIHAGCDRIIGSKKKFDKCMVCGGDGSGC

B1: Variant A2M, bait region SEQ ID NO 109 (other)
chain: SVSGKPQYMVLVPSLLHTETTEKGCVLLSYLNETVTVSASLESVRGNRSLFTDLEAENDVLHCVAFAVPKSSSNEEVMFLTVQVKGPTQEFKKRTTVMVKNEDSLVFVQTDKSIYKPGQTVKFRVVSMDENFHPLNELIPLVYIQDPKGNRIAQWQSFQLEGGLKQFSFPLSSEPFQGSYKVVVQKKSGGRTEHPFTVEEFVLPKFEVQVTVPKIITILEEEMNVSVCGLYTYGKPVPGHVTVSICRKYSDASDCHGEDSQAFCEKFSGQLNSHGCFYQQVKTKVFQLKRKEYEMKLHTEAQIQEEGTVVELTGRQSSEITRTITKLSFVKVDSHFRQGIPFFGQVRLVDGKGVPIPNKVIFIRGNEANYYSNATTDEHGLVQFSINTTNVMGTSLTVRVNYKDRSPCYGYQWVSEEHEEAHHTAYLVFSPSKSFVHLEPMSHELPCGHTQTVQAHYILNGGTLLGLKKLSFYYLIMAKGGIVRTGTHGLLVKQEDMKGHFSISIPVKSDIAPVARLLIYAVLPTGDVIGDSAKYDVENCLANKVDLSFSPSQSLPASHAHLRVTAAPQSVCALRAVDQSVLLMKPDAELSASSVYNLLPEKDLTGFPGPLNDQDDEDCINRHNVYINGITYTPVSSTNEKDMYSFLEDMGLKAFTNSKIRKPKMCPQLEPAGAARGESESEGGFFGFPIGERESTGGDRGLPIGENEAGGKLRKYFPETWIWDLVVVNSAGVAEVGVTVPDTITEWKAGAFCLSEDAGLGISSTASLRAFQPFFVELTMPYSVIRGEAFTLKATVLNYLPKCIRVSVQLEASPAFLAVPVEKEQAPHCICANGRQTVSWAVTPKSLGNVNFTVSAEALESQELCGTEVPSVPEHGRKDTVIKPLLVEPEGLEKETTFNSLLCPSGGEVSEELSLKLPPNVVEESARASVSVLGDILGSAMQNTQNLLQMPYGCGEQNMVLFAPNIYVLDYLNETQQLTPEIKSKAIGYLNTGYQRQLNYKHYDGSYSTFGERYGRNQGNTWLTAFVLKTFAQARAYIFIDEAHITQALIWLSQRQKDNGCFRSSGSLLNNAIKGGVEDEVTLSAYITIALLEIPLTVTHPVVRNALFCLESAWKTAQEGDHGSHVYTKALLAYAFALAGNQDKRKEVLKSLNEEAVKKDNSVHWERPQKPKAPVGHFYEPQAPSAEVEMTSYVLLAYLTAQPAPTSEDLTSATNIVKWITKQQNAQGGFSSTQDTVVALHALSKYGAATFTRTGKAAQVTIQSSGTFSSKFQVDNNNRLLLQQVSLPELPGEYSMKVTGEGCVYLQTSLKYNILPEKEEFPFALGVQTLPQTCDEPKAHTSFQISLSVSYTGSRSASNMAIVDVKMVSGFIPLKPTVKMLERSNHVSRTEVSSNHVLIYLDKVSNQTLSLFFTVLQDVPVRDLKPAIVKVYDYYETDEFAIAEYNAPCSKDLGNADYKDDDDKGASHHHHHH
B2: Variant A2M, bait region SEQ ID NO 106 (other)
chain: SVSGKPQYMVLVPSLLHTETTEKGCVLLSYLNETVTVSASLESVRGNRSLFTDLEAENDVLHCVAFAVPKSSSNEEVMFLTVQVKGPTQEFKKRTTVMVKNEDSLVFVQTDKSIYKPGQTVKFRVVSMDENFHPLNELIPLVYIQDPKGNRIAQWQSFQLEGGLKQFSFPLSSEPFQGSYKVVVQKKSGGRTEHPFTVEEFVLPKFEVQVTVPKIITILEEEMNVSVCGLYTYGKPVPGHVTVSICRKYSDASDCHGEDSQAFCEKFSGQLNSHGCFYQQVKTKVFQLKRKEYEMKLHTEAQIQEEGTVVELTGRQSSEITRTITKLSFVKVDSHFRQGIPFFGQVRLVDGKGVPIPNKVIFIRGNEANYYSNATTDEHGLVQFSINTTNVMGTSLTVRVNYKDRSPCYGYQWVSEEHEEAHHTAYLVFSPSKSFVHLEPMSHELPCGHTQTVQAHYILNGGTLLGLKKLSFYYLIMAKGGIVRTGTHGLLVKQEDMKGHFSISIPVKSDIAPVARLLIYAVLPTGDVIGDSAKYDVENCLANKVDLSFSPSQSLPASHAHLRVTAAPQSVCALRAVDQSVLLMKPDAELSASSVYNLLPEKDLTGFPGPLNDQDDEDCINRHNVYINGITYTPVSSTNEKDMYSFLEDMGLKAFTNSKIRKPKMCPQLEQYEMHGPEGLRVGESESEGGFAGLPNGKEEEGLGSIPENFFGVKLRKYFPETWIWDLVVVNSAGVAEVGVTVPDTITEWKAGAFCLSEDAGLGISSTASLRAFQPFFVELTMPYSVIRGEAFTLKATVLNYLPKCIRVSVQLEASPAFLAVPVEKEQAPHCICANGRQTVSWAVTPKSLGNVNFTVSAEALESQELCGTEVPSVPEHGRKDTVIKPLLVEPEGLEKETTFNSLLCPSGGEVSEELSLKLPPNVVEESARASVSVLGDILGSAMQNTQNLLQMPYGCGEQNMVLFAPNIYVLDYLNETQQLTPEIKSKAIGYLNTGYQRQLNYKHYDGSYSTFGERYGRNQGNTWLTAFVLKTFAQARAYIFIDEAHITQALIWLSQRQKDNGCFRSSGSLLNNAIKGGVEDEVTLSAYITIALLEIPLTVTHPVVRNALFCLESAWKTAQEGDHGSHVYTKALLAYAFALAGNQDKRKEVLKSLNEEAVKKDNSVHWERPQKPKAPVGHFYEPQAPSAEVEMTSYVLLAYLTAQPAPTSEDLTSATNIVKWITKQQNAQGGFSSTQDTVVALHALSKYGAATFTRTGKAAQVTIQSSGTFSSKFQVDNNNRLLLQQVSLPELPGEYSMKVTGEGCVYLQTSLKYNILPEKEEFPFALGVQTLPQTCDEPKAHTSFQISLSVSYTGSRSASNMAIVDVKMVSGFIPLKPTVKMLERSNHVSRTEVSSNHVLIYLDKVSNQTLSLFFTVLQDVPVRDLKPAIVKVYDYYETDEFAIAEYNAPCSKDLGNADYKDDDDKGASHHHHHH
B3: Variant A2M, bait region SEQ ID NO 107 (other)
chain: SVSGKPQYMVLVPSLLHTETTEKGCVLLSYLNETVTVSASLESVRGNRSLFTDLEAENDVLHCVAFAVPKSSSNEEVMFLTVQVKGPTQEFKKRTTVMVKNEDSLVFVQTDKSIYKPGQTVKFRVVSMDENFHPLNELIPLVYIQDPKGNRIAQWQSFQLEGGLKQFSFPLSSEPFQGSYKVVVQKKSGGRTEHPFTVEEFVLPKFEVQVTVPKIITILEEEMNVSVCGLYTYGKPVPGHVTVSICRKYSDASDCHGEDSQAFCEKFSGQLNSHGCFYQQVKTKVFQLKRKEYEMKLHTEAQIQEEGTVVELTGRQSSEITRTITKLSFVKVDSHFRQGIPFFGQVRLVDGKGVPIPNKVIFIRGNEANYYSNATTDEHGLVQFSINTTNVMGTSLTVRVNYKDRSPCYGYQWVSEEHEEAHHTAYLVFSPSKSFVHLEPMSHELPCGHTQTVQAHYILNGGTLLGLKKLSFYYLIMAKGGIVRTGTHGLLVKQEDMKGHFSISIPVKSDIAPVARLLIYAVLPTGDVIGDSAKYDVENCLANKVDLSFSPSQSLPASHAHLRVTAAPQSVCALRAVDQSVLLMKPDAELSASSVYNLLPEKDLTGFPGPLNDQDDEDCINRHNVYINGITYTPVSSTNEKDMYSFLEDMGLKAFTNSKIRKPKMCPQLEQYEMHGPEGLRVGIPENFFGVTSEDLVVQEAIPMSIPKLRKYFPETWIWDLVVVNSAGVAEVGVTVPDTITEWKAGAFCLSEDAGLGISSTASLRAFQPFFVELTMPYSVIRGEAFTLKATVLNYLPKCIRVSVQLEASPAFLAVPVEKEQAPHCICANGRQTVSWAVTPKSLGNVNFTVSAEALESQELCGTEVPSVPEHGRKDTVIKPLLVEPEGLEKETTFNSLLCPSGGEVSEELSLKLPPNVVEESARASVSVLGDILGSAMQNTQNLLQMPYGCGEQNMVLFAPNIYVLDYLNETQQLTPEIKSKAIGYLNTGYQRQLNYKHYDGSYSTFGERYGRNQGNTWLTAFVLKTFAQARAYIFIDEAHITQALIWLSQRQKDNGCFRSSGSLLNNAIKGGVEDEVTLSAYITIALLEIPLTVTHPVVRNALFCLESAWKTAQEGDHGSHVYTKALLAYAFALAGNQDKRKEVLKSLNEEAVKKDNSVHWERPQKPKAPVGHFYEPQAPSAEVEMTSYVLLAYLTAQPAPTSEDLTSATNIVKWITKQQNAQGGFSSTQDTVVALHALSKYGAATFTRTGKAAQVTIQSSGTFSSKFQVDNNNRLLLQQVSLPELPGEYSMKVTGEGCVYLQTSLKYNILPEKEEFPFALGVQTLPQTCDEPKAHTSFQISLSVSYTGSRSASNMAIVDVKMVSGFIPLKPTVKMLERSNHVSRTEVSSNHVLIYLDKVSNQTLSLFFTVLQDVPVRDLKPAIVKVYDYYETDEFAIAEYNAPCSKDLGNADYKDDDDKGASHHHHHH

The first assay concerns the target T1, ADAMTS5. Description: cell-based or functional assay.
Turning to B1, the “Protease Inhibition (% of WT)” value was 105 % of WT.
Consider B2, for which the “Protease Inhibition (% of WT)” value was 93 % of WT.
Take B3: the “Protease Inhibition (% of WT)” value was 108 % of WT.

A further assay has as its target T2, ADAMTS4. Description: cell-based or functional assay.
Consider B1, for which the “Protease Inhibition (% of WT)” value was 112 % of WT.
Regarding B2, the “Protease Inhibition (% of WT)” value is 104 % of WT.
As to B3, the “Protease Inhibition (% of WT)” value was 92 % of WT.

In a further assay the target is MMP13 (human, UniProt P45452 104-471, limits assumed). Description: cell-based or functional assay.
B1: the “Protease Inhibition (% of WT)” value is 122 % of WT.
On to B2, for which the “Protease Inhibition (% of WT)” value was 16 % of WT.
Same read-out and setting: the result for B3 reads 136 % of WT.
